The target in test [1] is T1, human OX40 on cells (CHO-hOX40, 293HEK-hOX40, Jurkat-hOX40, activated primary CD4+ T cells) (human, UniProt P43489 29-277).
T1 construct: whole, on cells; The cell type is told in each assay; also called CHO-OX40
T1 sequence (looked up): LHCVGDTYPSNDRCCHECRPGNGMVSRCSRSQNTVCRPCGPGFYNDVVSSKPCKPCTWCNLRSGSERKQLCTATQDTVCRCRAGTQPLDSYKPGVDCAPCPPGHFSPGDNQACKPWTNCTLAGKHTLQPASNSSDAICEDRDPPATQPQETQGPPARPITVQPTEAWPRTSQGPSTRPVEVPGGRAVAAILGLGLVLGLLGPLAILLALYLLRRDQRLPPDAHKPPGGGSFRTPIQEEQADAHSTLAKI
Briefly: flow cytometry, CHO-hOX40. (In general: A flow cytometer gives signals particle by particle.)

The target in test [2] is T1, human OX40 on cells (CHO-hOX40, …). Briefly: flow cytometry, CHO-hOX40, 25 nM.
The target is the same in test [3]. Briefly: flow cytometry, CHO-hOX40, 50 nM.
The target is the same in test [4]. Kind of test: flow cytometry, CHO-hOX40, 6.25 nM.
Test [5] has the same target. Briefly: flow cytometry, CHO-hOX40, 12.5 nM.
Test [6] has the same target. Kind of test: flow cytometry, CHO-hOX40, 3.125 nM.
The target is the same in test [7]. Briefly: flow cytometry, CHO-hOX40, 3.125 nM. This is another data set of the same source.
The target is the same in test [8]. Briefly: flow cytometry, CHO-hOX40, 0.78125 nM.
Test [9] shares this target. Kind of test: flow cytometry, CHO-hOX40, 0.1953125 nM.
For test [10] the target is unchanged. Kind of test: flow cytometry, CHO-hOX40, 0.024414063 nM.
The target is the same in test [11]. Briefly: flow cytometry, CHO-hOX40, 0.048828125 nM.
Test [12] shares this target. Briefly: flow cytometry, CHO-hOX40, 0.024414063 nM. This is another data set of the same source.
The target is the same in test [13]. Kind of test: flow cytometry, CHO-hOX40, 0.048828125 nM. The source holds these as a separate data set.

This note sets out measurements from patent US20200140562A1 (Innovent, published 2020).

B1: OX40L (control reagent; recombinant OX40L, Acro Biosystems) (ligand, UniProt P23510 51-183, looked up)
chain: QVSHRYPRIQSIKVQFTEYKKEKGFILTSQKEDEIMKVQNNSVIINCDGFYLISLKGYFSQEVNISLHYQKDEEPLFQLKKVRSVNSLMVASLTYKDKVYLNVTTDNTSLDDFHVNGGELILIHQNPGEFCVL
notes: may be the same reagent as OX40L-hFc
What is called EC50 is the concentration at which the effect is half-maximal. Low values mean an effect from little substance, high ones a need for much substance. In the case of B1, a half-maximal effect in test [1] (EC50) was put at 12.4 nM. For the same molecule, the MFI in test [2] was determined as 2.8e+06 MFI; in test [3], 1.08e+06 MFI; in test [4], 1.48e+06 MFI; in test [5], 1.11e+06 MFI; in test [6], 932000 MFI; in [7] it was 342000 MFI. Besides, the MFI was determined as 86000 MFI in test [8]; 83200 MFI in test [9]; 12800 MFI in [10]; 34000 MFI in test [11]; 7970 MFI in [12]; 8350 MFI in test [13].
